# Measurements published in patent publication US20110269938A1 (COMMONWEALTH SCIENTIFIC AND INDUSTRIAL RESEARCH ORGANISATION, published 2011).
# What was measured:
# [1] = target: the molecule itself; experiment: self-association of familial mutation variants
# [2] = target: the molecule itself; experiment: Western blot of periplasmic fraction, self-association
# [3] = target: the molecule itself; experiment: Western blot of periplasmic fraction (self-association)
Protein,binding result [1],other results
"Aβ-IgNAR 37F-2 (Asp23Asn) (VNAR, also called familial mutant Asp23Asn) VNAR: AWVDQTPRTATKETGESLTINCVLRDASFELKDTGWYRTKLGSTNEQSISIGGRYVETVNKGSKSFSLRISDLRVEDSGTYKCQAFYVFFAENVGSNKGAIIGLMVGGVVIGGEKGAGTALTVKA",binds,
"Aβ-IgNAR 37K-1 (Glu22Gln) (VNAR, also called familial mutant Glu22Gln) VNAR: AWVDQTPRTATKETGESLTINCVLRDASFELKDTGWYRTKLGSTNEQSISIGGRYVETVNKGSKSFSLRISDLRVEDSGTYKCQAFYVFFAQDVGSNKGAIIGLMVGGVVIGGEKGAGTALTVKA",binds,
"Aβ-IgNAR 37L-2 (Ala21Gly) (VNAR, also called familial mutant Ala21Gly) VNAR: AWVDQTPRTATKETGESLTINCVLRDASFELKDTGWYRTKLGSTNEQSISIGGRYVETVNKGSKSFSLRISDLRVEDSGTYKCQAFYVFFGEDVGSNKGAIIGLMVGGVVIGGEKGAGTALTVKA",binds,
"Aβ-IgNAR 37R-1 (ΔGlu22) (VNAR, also called familial mutant ΔGlu22) VNAR: AWVDQTPRTATKETGESLTINCVLRDASFELKDTGWYRTKLGSTNEQSISIGGRYVETVNKGSKSFSLRISDLRVEDSGTYKCQAFYVFFADVGSNKGAIIGLMVGGVVIGGEKGAGTALTVKA",binds,
"Aβ-IgNAR-G6 (VNAR, No crystals obtained; also called 37Q-6; glycine-6 version) VNAR: AWVDQTPRTATKETGESLTINCVLRDASFELKDTGWYRTKLGSTNEQSISIGGRYVETVNKGSKSFSLRISDLRVEDSGTYKCQAFYGGGLVFFAEDVGSNKGAIIGLMVGGVVIAGGGGEKGAGTALTVKA",,binding result [2]: binds
"IgNAR single variable domain antibody 12Y-2 (VNAR, Scaffold without Aβ insert, used as the monomeric control; also called IgNAR wt; wild type IgNAR) VNAR: AWVDQTPRTATKETGESLTINCVLRDASFELKDTGWYRTKLGSTNEQSISIGGRYVETVNKGSKSFSLRISDLRVEDSGTYKCQAFYSLPLGDYNYSLLFRGEKGAGTALTVKA",,binding result [3]: no binding
"Aβ-IgNAR-G3 (VNAR, No crystals obtained; also called 37A-1; glycine-3 version) VNAR: AWVDQTPRTATKETGESLTINCVLRDASFELKDTGWYRTKLGSTNEQSISIGGRYVETVNKGSKSFSLRISDLRVEDSGTYKCQAFYGLVFFAEDVGSNKGAIIGLMVGGVVIAGGGEKGAGTALTVKA",,binding result [2]: binds
